Data taken from the DeepSol protein solubility set.

Assay: soluble on expression in E. coli; label from the status in PepcDB or PDB records

Row | Sequence | soluble on expression in E. coli
1 | MHHHHHHGSMGMMSRYEELRKELPAQPKVWLITGVAGFIGSNLLETLLKLDQKVVGLDNFATGHQRNLDEVRSLVSEKQWSNFKFIQGDIRNLDDCNNACAGVDYVLHQAALGSVPRSINDPITSNATNIDGFLNMLIAARDAKVQSFTYAASSSTYGDHPGLPKVEDTIGKPLSPYAVTKYVNELYADVFSRCYGFSTIGLRYFNVFGRRQDPNGAYAAVIPKWTSSMIQGDDVYINGDGETSRDFCYIENTVQANLLAATAGLDARNQVYNIAVGGRTSLNQLFFALRDGLAENGVSYHREPVYRDFREGDVRHSLADISKAAKLLGYAPKYDVSAGVALAMPWYIMFLK | soluble
2 | MHHHHHHLEVLFQGPSSTVTIEYFNQKKEMTKTLEEITRDFEKENPKIKVKVVNVPNAGEVLKTRVLAGDVPDVVNIYPQSIELQEWAKAGVFEDLSNKDYLKRVKNGYAEKYAVNEKVYNVPFTANAYGIYYNKDKFEELGLKVPETWDEFEQLVKDIVAKGQTPFGIAGADAWTLNGYNQLAFATATGGGKEANQYLRYSQPNAIKLSDPIMKDDIKVMDILRINGSKQKNWEGAGYTDVIGAFARGDVLMTPNGSWAITAINEQKPNFKIGTFMIPGKEKGQSLTVGAGDLAWSISATTKHPKEANAFVEYMTRPEVMQKYYDVDGSPTAIEGVKQAGEDSPLAGMTEYAFTDRHLVWLQQYWTSEADFHTLTMNYVLTGDKQGMVNDLNAFFNPMKM | soluble
3 | MHHHHHHMGLELYLDLLSQPCRAVYIFAKKNDIPFELRIVDLIKGQHLSDAFAQVNPLKKVPALKDGDFTLTESVAILLYLTRKYKVPDYWYPQDLQARARVDEYLAWQHTTLRRSCLRALWHKVMFPVFLGEPVSPQTLAATLAELDVTLQLLEDKFLQNKAFLTGPHISLADLVAITELMHPVGAGCQVFEGRPKLATWRQRVEAAVGEDLFQEAHEVILKAKDFPPADPTIKQKLMPWVLAMIR | soluble
4 | MHHHHHHMKHNQLPLVIEFTEQTAPKIFGGEIKTHILLFLPKSVSDYDGKLSNFKTAAESFKGKILFAFIDSDHTDNQRILEFFGLKKEECPAVRLITLEEEMTKYKPESEELTAERITEFCHRFLEGKIKPHLMSQELPEDWDKQP | soluble
5 | MHHHHHHSSGVDLGTENLYFQSMLPHSVLLEIQKELLDYKGVGISVLEMSHRSSDFAKIINNTENLVRELLAVPDNYKVIFLQGGGCGQFSAVPLNLIGLKAGRCADYVVTGAWSAKAAEEAKKFGTINIVHPKLGSYTKIPDPSTWNLNPDASYVYYCANETVHGVEFDFIPDVKGAVLVCDMSSNFLSKPVDVSKFGVIFAGAQKNVGSAGVTVVIVRDDLLGFALRECPSVLEYKVQAGNSSLYNTPPCFSIYVMGLVLEWIKNNGGAAAMEKLSSIKSQTIYEIIDNSQGFYVCPVEPQNRSKMNIPFRIGNAKGDDALEKRFLDKALELNMLSLKGHRSVGGIRASLYNAVTIEDVQKLAAFMKKFLEMHQL | soluble
6 | MHHHHHHSSGVDLGTENLYFQSMPFPEGKVLDDMEGNQWVLGKKIGSGGFGLIYLAFPTNKPEKDARHVVKVEYQENGPLFSELKFYQRVAKKDCIKKWIERKQLDYLGIPLFYGSGLTEFKGRSYRFMVMERLGIDLQKISGQNGTFKKSTVLQLGIRMLDVLEYIHENEYVHGDIKAANLLLGYKNPDQVYLADYGLSYRYCPNGNHKQYQENPRKGHNGTIEFTSLDAHKGVALSRRSDVEILGYCMLRWLCGKLPWEQNLKDPVAVQTAKTNLLDELPQSVLKWAPSGSSCCEIAQFLVCAHSLAYDEKPNYQALKKILNPHGIPLGPLDFSTKGQSINVH | soluble
7 | MHHHHHHSSGVDLGTENLYFQSNAMSHSIEQLSINTIRTLSIDAIEKANSGHPGMPMGAAPMAYTLWTQFMKHNPNNPTWFNRDRFVLSAGHGSMLLYSLLHLSGYDVTMDDLKNFRQWGSKTPGHPEYGHTAGVDATTGPLGQGIATAVGMAMAERHLAAKYNRDAYNIVDHYTYAICGDGDLMEGVSAEASSLAAHLQLGRLVVLYDSNDISLDGDLNRSFSESVEDRYKAYGWQVIRVEDGNDIEAIAKAIEEAKADEKRPTLIEVRTTIGFGSPNKSGKSASHGSPLGVEETKLTKEAYAWTAEQDFHVAEEVYENFRKTVQDVGETAQAEWNTMLGEYAQAYPELANELQAAMNGLLPEGWEQNLPTYELGSKAATRNSSGAVINAIAESVPSFFGGSADLAGSNKTYMNNEKDFTRDDYSGKNIWYGVREFAMGAAMNGIALHGGLKTYGGTFFVFSDYLRPAIRLAALMQLPVTYVFTHDSIAVGEDGPTHEPIEQLAALRAMPNVSVIRPADGNESVAAWRLALESTNKPTALVLTRQDLPTLEGAKDDTYEKVAKGAYVVSASKKETADVILLATGSEVSLAVEAQKALAVDGVDASVVSMPSMDRFEAQTAEYKESVLPKAVTKRFAIEMGATFGWHRYVGLEGDVLGIDTFGASAPGEKIMEEYGFTVENVVRKVKEML | soluble
8 | MHKDIKIVDASAIVKPTGTPYVVYFSSISNNTHRFIEKLEFEHTRIPVNLDEQIEVNQEYVLFCPTYSGGGEYTSGAVPKQVIHFLNNKHNRDLCRGVISSGNTNFGNTFAIAGPILSKKLNVPLLYQFELLGTKNDVEQVQTIITNFFGKAK | soluble
9 | MHLELHQINGNDPLGTIIGERNYQLPIPLPYTMKTVKQIHSGIWHTVIRGYDQYNRPQIATFGKNYDGQLGTGDCENRDTPTPIKLPPEMLTFHAIQTGFFHTIATGLDKNGFPIVASCGYNSDGQLGCGDKDNKNTLIPIKLPENMKSVEMVATGVKHTVIVGKDINNKPVVATCGHNGYGQLGTGDEENRLCLTPIGIPEDITSVDYVGAGAYHTVICGRNIKNQPIITLCGCNSDGELGFAPQKIAKKSSLMTNPAMFFPPRQDKSAINNLMKISKFSPCNLL | not soluble
10 | MHLSPESLEAFVQAVSLGSFSAAARKLGKSQSTVSEAIARLEIDLGLELFDRSGRQPQLTEAGRTLLGRVEEVLGASDRLRRVAALLAGGSEPRVTLALSDTYHSARYEARLAELDERYPELEFECLIAEDQDVIAQVSRGRATLGLLAAQPHYPPELGVAAVAERAEFGLFAAVDHPLAGLERVSERDLSEWRLLRLNTYSETGAAINDGLPSSGGRCWSAPNYLLLLEMATHGFGWAELPRWLVSGYANGRLKELPVSGWPRSQAVDVVWSRQRPLGPAANWLLDRLLDRDLPI | not soluble
11 | MHMLKARNCGWIRLLPLFMLSLPVQAELRCVANAVDIESFFSAATAEDKQQVEQAINSSVNLVPFGLSASNWKVHRGDLVVEGNIESNQKLIVLGNLTVKGNISTFSLSNPWVILGNVTATNIVADSPLLITGSINASGLVFIDSYYDNPSTIKGSINARGIFINDIIAPVVASSTNSEFMVRASDKHDTENVKKALMIINPDAYYWGLINDEDALKEIFKRSNIRMAGNVCNQMKKEALFRPKPSPELVQELQMLDEGKVAAFEGRDIATFDLAVMRTLPRLKGISANLRKQLINSNDEQTIESMARYMPDNEILELTDQQLGYQPVVLGLLDREPLSVEIMTRMSRLPDGVGPLNLALRENLPLDIVMTLAKRDWDMIIQELYKDAWLLPESIIDGYIRSDDSSIRQVGAGGQLTYNQAMQLANDSSNNVVTSLAFKLAEMKHHGQLLRMTPQESDKVAGYLYQKFENDDDLIRVLFLALPDNLQFNFVKRMEKKSPAYFCCRDMQVIHSDAALQRLLTRFNDPEGWSNLAKNQYLSTSMKQKIWQRALSHRKNNPKADSDAYETSADMILSELISHGEVDDQMLLNATALIRSDDWDFLESALISWDNLPAVVLKELQQNTPRNDIWAKFFLRQENSSRAQVDEALRVYYALDPDALAQLDVLAKQPDRIWWSTLAKSNLTFFKFGALNNRHTPPAVLAAEIDPEWWIVAMNNPRFPVDVLKARLKRDPLLALELVNPELDLVRQLALNGKTRAIREQAMRKLDELY | not soluble
12 | MHMQLKGKTALVTGSTAGIGKAIATSLVAEGANVLINGRREENVNETIKEIRAQYPDAILQPVVADLGTEQGCQDVIEKYPKVDILINNLGIFEPVEYFDIPDEDWFKLFEVNIMSGVRLTRSYLKKMIERKEGRVIFIASEAAIMPSQEMAHYSATKTMQLSLSRSLAELTTGTNVTVNTIMPGSTLTEGVETMLNSLYPNEQLTIEEAEKRFMKENRPTSIIQRLIRPEEIAHLVTFLSSPLSSAINGSALRIDGGLVRSVF | not soluble
13 | MHQQIIKFWFEELTPQNWFENNPELDKHIASRFASVLEQAARCELFNWRDSAQGRLAEIIVLDQFSRNVYRNTPKAFAQDPLALALAQEAIRLGHDQELAPEQLSFLYMPFMHSESRLIHVEAEKLFRASGLENNYDFELKHKAIIDQFGRYPHRNAILGRESTPEELAFLQQPGSSF | not soluble
14 | MHRGGQPLKKRRGSFKMAELDQLPDESSSAKALVSLKEGSLSNTWNEKYSSLQKTPVWKGRNTSSAVEMPFRNSKRSRLFSDEDDRQINTRSPKRNQRVAMVPQKFTATMSTPDKKASQKIGFRLRNLLKLPKAHKWCIYEWFYSNIDKPLFEGDNDFCVCLKESFPNLKTRKLTRVEWGKIRRLMGKPRRCSSAFFEEERSALKQKRQKIRLLQQRKVADVSQFKDLPDEIPLPLVIGTKVTARLRGVHDGLFTGQIDAVDTLNATYRVTFDRTGLGTHTIPDYEVLSNEPHETMPIAAFGQKQRPSRFFMTPPRLHYTPPLQSPIIDNDPLLGQSPWRSKISGSDTETLGGFPVEFLIQVTRLSKILMIKKEHIKKLREMNTEAEKLKSYSMPISIEFQRRYATIVLELEQLNKDLNKVLHKVQQYCYELAPDQGLQPADQPTDMRRRCEEEAQEIVRHANSSTGQPCVENENLTDLISRLTAILLQIKCLAEGGDLNSFEFKSLTDSLNDIKSTIDASNISCFQNNVEIHVAHIQSGLSQMGNLHAFAANNTNRD | soluble
15 | MHTDTPSLESLLEAARQRYDVVFEPLTVDETPLDVLQIRNMRQHIDALVANRSVRDPLHDLPLWAKIWPASFVLGRFLRKASPEGRTLLEVGAGCGVTGLIASRYGFAHVTVSDINEDALLFARANVLKNGLEDRVSVRRVDVASTRLDEKFDVIAASEVLYLEELHRPLIKFLLRHLARREDAVAMLCTDTRRKMGRFFKQAERDFRIEEQLVGIRTTGDDGEEERRVFTIHRLHHKHPLEHHHHHH | not soluble
16 | MHTQRAGLSAIVATYRYQLATGVVYRDISSTIATEKIPFVENAVLKERAFIETIKQHQEPQRRIPRPVDSYVMLHSNARITTSRVIPQHKYKVTAKNPCRSIKRNAFQTAPSQTQLFISVNNRWLGLEHHHHHH | not soluble
17 | MHVTLVEINVHEDKVDEFIEVFRQNHLGSVQEEGNLRFDVLQDPEVNSRFYIYEAYKDEDAVAFHKTTPHYKTCVAKLESLMTGPRKKRLFNGLMP | soluble
18 | MIAKHIDRFPLLKLDRVIDWQLIEQYLNRQKTRYLRDHRGRPAYPLLSMFKAVLLGQWHSLSDPELEHSLITRIDFNLFCRFDELSIPDYSTLCRYRNRLAQDNTLSELLELINRQLTEKGLKIEKASAAVVDATIIQTAGSKQRQAIEVDEEGQISGQTTPSKDSDARWIKKNGLYKLGYKQHTRTDAEGYIEKLHITPANAHECKHLSPLLEGLPKGTTVYADKGYDSAENRQHLEEHQLLDGIMRKAHRNRPLTEVQTKRNRYLSKTRYVVEQSFGTLHRKFRYARAAYFGLVKVSAQSHLKAMCLNLLKAANRLSAPAAA | not soluble
19 | MICARIRPLISSPLAFTISTTKHSRINLRLLPRRSFSVMSSSTPQSQIIEHIVLFKTKDDADSTKITSMINNLNALAYLDQVLHISTSPLHRISSATAFTHVLHSRYESKEDLASYAAHPDHVRVVKESVLPICDDIMAVDWIADRIPGTVAPLPGSVAKLTLLKLKEDVADEAKSEITGVIKGLSEKFPGIDQITVGENFSPARAKGFSIASIAYFKDLSEMEAVDAQKELVNSQKDKVRDYVDSTIVVEFVVPSSSQSSSL | soluble
20 | MIDEYDDLAHDSSEGEFEPNTLTPEEKPPHNVDEDRIESTGVAAPMQGTEEPEKGDQKESDGASQVDQSVEITRPETSYYQTLESPSTKRQKLDQQGNGDQTRDFGTSMEL | soluble
